Positions count from the first letter of the chain named. In names and notes the source's numbering stands.
T1: IL-2 receptor IL-2Rα/β/γ on human peripheral blood Treg cells (human, UniProt P01589 22-272; P14784 27-551; P31785 23-369)
T1 sequence (looked up) 1: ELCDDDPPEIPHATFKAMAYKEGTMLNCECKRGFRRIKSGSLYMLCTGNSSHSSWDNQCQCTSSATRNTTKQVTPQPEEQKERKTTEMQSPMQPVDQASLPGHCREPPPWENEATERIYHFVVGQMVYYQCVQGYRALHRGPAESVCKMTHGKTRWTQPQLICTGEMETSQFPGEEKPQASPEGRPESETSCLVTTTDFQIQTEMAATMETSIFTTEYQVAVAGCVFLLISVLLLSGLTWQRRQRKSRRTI
T1 sequence (looked up) 2: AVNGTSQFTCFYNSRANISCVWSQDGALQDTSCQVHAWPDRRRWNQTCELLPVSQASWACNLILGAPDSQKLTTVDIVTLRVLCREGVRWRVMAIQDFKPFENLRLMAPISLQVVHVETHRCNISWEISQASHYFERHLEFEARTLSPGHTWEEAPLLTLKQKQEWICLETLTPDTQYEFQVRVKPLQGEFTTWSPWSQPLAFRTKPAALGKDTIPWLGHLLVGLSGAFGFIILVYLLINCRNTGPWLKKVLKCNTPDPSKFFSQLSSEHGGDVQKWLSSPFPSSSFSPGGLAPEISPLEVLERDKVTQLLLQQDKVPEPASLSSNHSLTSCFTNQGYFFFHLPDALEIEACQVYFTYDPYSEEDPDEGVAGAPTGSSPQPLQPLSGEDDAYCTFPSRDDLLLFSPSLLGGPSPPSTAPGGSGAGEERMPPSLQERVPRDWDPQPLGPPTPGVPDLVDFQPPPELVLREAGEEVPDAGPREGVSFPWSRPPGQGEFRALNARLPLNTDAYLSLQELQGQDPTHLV
T1 sequence (looked up) 3: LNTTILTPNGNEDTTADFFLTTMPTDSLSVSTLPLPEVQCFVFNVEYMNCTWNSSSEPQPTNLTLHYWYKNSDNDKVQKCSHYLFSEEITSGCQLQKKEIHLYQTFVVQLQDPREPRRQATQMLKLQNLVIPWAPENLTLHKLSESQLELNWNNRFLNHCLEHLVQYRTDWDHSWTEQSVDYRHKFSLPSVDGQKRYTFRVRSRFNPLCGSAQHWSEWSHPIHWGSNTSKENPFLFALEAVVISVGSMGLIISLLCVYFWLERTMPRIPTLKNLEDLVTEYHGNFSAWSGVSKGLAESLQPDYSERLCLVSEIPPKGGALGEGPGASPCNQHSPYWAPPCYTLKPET

T2: his-tagged human IL-2Rα recombinant protein (SinoBiological, Cat #10165-H08H) (human, UniProt P01589 22-213)
T2 construct: Bought protein; also called IL-2Rα (His Tag)
T2 sequence: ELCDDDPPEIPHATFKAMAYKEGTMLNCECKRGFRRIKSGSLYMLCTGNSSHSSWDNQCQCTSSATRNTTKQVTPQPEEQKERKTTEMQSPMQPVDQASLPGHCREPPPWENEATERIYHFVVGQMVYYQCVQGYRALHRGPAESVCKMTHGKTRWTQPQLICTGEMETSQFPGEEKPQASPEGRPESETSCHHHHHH

T3: high-affinity receptor IL-2Rα/β/γ on CTLL2 cells (mouse-derived cell line) (mouse, UniProt P01590 22-268; P16297 27-539; P34902 23-369)
T3 sequence (looked up) 1: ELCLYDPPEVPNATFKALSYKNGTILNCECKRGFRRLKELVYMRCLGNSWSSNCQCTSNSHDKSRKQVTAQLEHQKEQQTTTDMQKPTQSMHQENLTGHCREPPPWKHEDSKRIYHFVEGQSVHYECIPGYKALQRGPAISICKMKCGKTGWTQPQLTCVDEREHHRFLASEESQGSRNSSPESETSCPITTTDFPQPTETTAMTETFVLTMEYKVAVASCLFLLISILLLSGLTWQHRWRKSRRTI
T3 sequence (looked up) 2: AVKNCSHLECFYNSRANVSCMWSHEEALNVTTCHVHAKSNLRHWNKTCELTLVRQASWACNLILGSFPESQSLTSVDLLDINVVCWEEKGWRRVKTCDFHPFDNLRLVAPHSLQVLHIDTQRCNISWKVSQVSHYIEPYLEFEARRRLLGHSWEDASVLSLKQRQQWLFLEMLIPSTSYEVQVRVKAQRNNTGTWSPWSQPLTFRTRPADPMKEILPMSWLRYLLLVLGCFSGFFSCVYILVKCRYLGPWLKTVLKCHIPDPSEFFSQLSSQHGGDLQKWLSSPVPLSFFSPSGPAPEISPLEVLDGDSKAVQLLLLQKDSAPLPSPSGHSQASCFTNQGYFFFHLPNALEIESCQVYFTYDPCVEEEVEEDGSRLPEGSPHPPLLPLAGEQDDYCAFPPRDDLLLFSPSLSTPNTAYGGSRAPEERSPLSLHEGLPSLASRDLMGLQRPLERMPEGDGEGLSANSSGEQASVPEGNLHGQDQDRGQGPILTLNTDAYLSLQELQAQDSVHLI
T3 sequence (looked up) 3: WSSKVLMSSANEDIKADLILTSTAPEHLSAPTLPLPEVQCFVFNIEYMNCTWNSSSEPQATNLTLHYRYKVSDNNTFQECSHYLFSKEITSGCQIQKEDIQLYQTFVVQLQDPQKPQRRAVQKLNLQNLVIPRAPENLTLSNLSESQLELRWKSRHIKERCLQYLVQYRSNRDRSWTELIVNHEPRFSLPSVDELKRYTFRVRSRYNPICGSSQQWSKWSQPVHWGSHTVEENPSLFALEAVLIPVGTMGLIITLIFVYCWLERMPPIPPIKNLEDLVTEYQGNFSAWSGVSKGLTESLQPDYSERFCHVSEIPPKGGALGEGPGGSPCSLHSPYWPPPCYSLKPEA

T4: medium-affinity receptor IL-2Rβ/γ on human cells (Mo7e cell line; human CD8+T and NK cells) (human, UniProt P14784 27-551; P31785 23-369)
T4 sequence (looked up) 1: T1 sequence (looked up) 2
T4 sequence (looked up) 2: T1 sequence (looked up) 3

B1: IL-2-24 (N26Q/N29S/N88R) (ligand)
chain: MAPTSSSTKKTQLQLEHLLLDLQMILQGISNYKNPKLTRMLTFKFYMPKKATELKHLQCLEEELKPLEEVLNLAQSKNFHLRPRDLISRINVIVLELKGSETTFMCEYADETATIVEFLNRWITFAQSIISTLT
B2: PEGylated IL-2-10 (ligand)
chain: B1 chain with S30N, N31S, F43A, L73G, R89N
modifications: mono-PEGylated with 20 kDa mPEG-butyraldehyde (sodium cyanoborohydride); site not stated
notes: also called PEG-IL-2-10
B3: PEGylated IL-2-22 (ligand)
chain: B1 chain with F43A, N72Q, L73G, R89N
modifications: mono-PEGylated with 20 kDa mPEG-butyraldehyde (sodium cyanoborohydride); site not stated
notes: also called PEG-IL-2-22
B4: PEGylated IL-2-23 (ligand)
chain: MAPTSSSTKKTCLQLEHLLLDLQMILNGIQSMHIDATLYMPKKATELKHLQCLEEELKPLEEVLNLAQSKNFHLRPRDLISNINVIVLELKGSETTFMCEYADETATIVEFLNRWITFAQSIISTCT
modifications: mono-PEGylated with 20 kDa mPEG-butyraldehyde (sodium cyanoborohydride); site not stated
notes: also called PEG-IL-2-23

Columns and labels:
[1] = biological target: T1, IL-2 receptor IL-2Rα/β/γ on human …; assay: cell-based or functional assay
[2] = biological target: T2, his-tagged human IL-2Rα recombinant …; assay: BLI (Octet RED96e), His-tagged IL-2Rα on HIS1K sensor; column printed as 'affinity (nM)'
[3] = biological target: T3, high-affinity receptor IL-2Rα/β/γ on …; assay: cell-based or functional assay
[4] = biological target: T4, medium-affinity receptor IL-2Rβ/γ on …; assay: cell-based or functional assay
[5] = biological target: T4, medium-affinity receptor IL-2Rβ/γ on …; assay: cell-based or functional assay; remark: listed apart in the source
[6] = biological target: T4, medium-affinity receptor IL-2Rβ/γ on …; assay: cell-based or functional assay; remark: listed apart in the source
[7] = biological target: T2, his-tagged human IL-2Rα recombinant …; assay: BLI (Octet RED96e), His-tagged IL-2Rα on HIS1K sensor
Experimental: The HIS1K biosensor (Fortebio, 18-5120) was immersed into 200 μL buffer (PBS, pH 7.4, 0.02% tween-20, 0.1% BSA) for 10 minutes, for wetting treatment. Then, human IL-2Rα with His tag (SinoBiological, Cat #10165-H08H) was dissolved in PBS pH 7.4, 0.02% tween-20 and 0.1% BSA, and the sensor was placed in 200 μL of such solution. The sensor was placed in 200 μL buffer (PBS pH 7.4, 0.02% tween-20, 0.1% BSA) to wash off the excess IL-2Rα.

[8] = biological target: T5, IL-2Rβ/γ-Fc heterodimer (IL-2Rβ-Fc-hole with IL-2Rγ-Fc-knob); assay: SPR (Biacore), IL-2Rβ/γ-Fc captured on Protein A chip
T5 construct: Co-expressed in HEK293 cells and purified with Protein A and Superdex 200
Experimental: The Protein A sensor chip (GE, Cat #29127556) of the Biacore instrument (Biacore T200, GE) was used to capture IL-2Rβ/γ-Fc, wherein IL-2Rβ/γ-Fc was diluted with 1×HBS-EP to 1 μg/mL, and flowed at a flow rate of 10 μL/min for 30 seconds. […] The Biacore instrument (Biacore X100, GE) was used to detect the reaction in real time, to obtain association and dissociation curves. After each cycle of dissociation was completed, the chip was washed and regenerated with 10 mM Gly-HCl pH 1.5.

| Binder | EC50 (STAT5 phosphorylation in human Treg cells) [1] | relative biological activity (STAT5 phosphorylation in human Treg cells) [1] | Kd [2] | EC50 (CTLL2 cell proliferation) [3] | relative biological activity (CTLL2 cell proliferation) [3] | EC50 (Mo7e cell proliferation) [4] | relative biological activity (Mo7e cell proliferation) [4] | EC50 (STAT5 phosphorylation in human CD8+T cells) [5] | relative activity (STAT5 phosphorylation in human CD8+T cells) [5] | EC50 (STAT5 phosphorylation in human NK cells) [6] | relative activity (STAT5 phosphorylation in human NK cells) [6] | binding result [7] | Kd [8] | koff [8] | kon [8] |
| --- | --- | --- | --- | --- | --- | --- | --- | --- | --- | --- | --- | --- | --- | --- | --- |
| B1 | 0.209 nM | 0.2% | 11.8 nM |  |  |  |  |  |  |  |  |  |  |  |  |
| B2 | 2.65 nM | 0.02% |  | 35.3 nM | 0.2% | 13.2 nM | 19% | 8.97 nM | 26% | 2 nM | 24% | no binding (tested: 133.3 nM) | 0.86 nM | 0.00119 s⁻¹ | 1.38e+06 M⁻¹ s⁻¹ |
| B3 |  |  |  | 39.2 nM | 0.1% | 34.8 nM | 7% |  |  |  |  | no binding (tested: 133.3 nM) | 3.54 nM | 0.000549 s⁻¹ | 155000 M⁻¹ s⁻¹ |
| B4 | 4.24 nM | 0.01% |  |  |  | 23.4 nM | 10% | 14.4 nM | 16% | 2.88 nM | 17% | no binding (tested: 133.3 nM) | 1.86 nM | 0.000649 s⁻¹ | 350000 M⁻¹ s⁻¹ |

Source: patent US20220056094A1 (JIANGSU HENGRUI MEDICINE, published 2022)
